Reference: article PMC9596371 (Nature Chemical Biology, 2022)

Molecular target: OC43 spike protein (FL-GCN4-Avi-His, 2P, biotinylated) (human coronavirus OC43, strain of …, UniProt P36334, stabilised, biotin on the Avi tag)
Assay: ELISA
Details: both partners purified

B1: COV2-2449 IgG (antibody, V domains shown)
VH: QVQLVESGGGVVQPGRSLRLSCATSGFTFSSFALHWVRQAPGKGLEWVTVISDDGNNKYYVDSVKGRFTISRDNSKNTLFLQMNSLRVEDTAIYYCARASYNSNWSIGEYFRDWGQGTLVTVSS
VL: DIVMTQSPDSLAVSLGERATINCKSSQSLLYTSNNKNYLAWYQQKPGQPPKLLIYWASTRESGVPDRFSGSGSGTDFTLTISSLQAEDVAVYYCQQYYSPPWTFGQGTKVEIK
- binding result: binds
